One experiment addresses SARS-CoV1 Spike [change] (SARS-CoV-1, UniProt P59594 14-667). The experiment in a line: Octet BLI, IgG, monovalent.
The next experiment deals with SARS-CoV-2 Spike S1-His (SARS-CoV-2, UniProt P0DTC2 16-685). The experiment in a line: Octet BLI, IgG, monovalent.
The target in experiment [1] is SARS-CoV-2 wild type spike protein (on reporter virus particles) (SARS-CoV-2, UniProt P0DTC2 14-1273). Nature of the experiment: cell-based or functional assay.

The values below come from patent publication US20260217797A1 (Takeda / Millennium, published 2026).

B1: A-24.1 (antibody, V domains shown)
VH: EVQLVESGGGLVKPGRSLRLSCAASGFTFADYTMSWFRQAPGKGLEWVGFIRSEPYGGTTEYAASVKGRFTISRDDSKSIAYLQMNSLKTEDTAVYYCSRDPWYCSGGDCYAVTGSWFDPWGQGTLVTVSS
VL: DIQMTQSPSSLSASVGDRVTITCQASQDIKKYLNWYQQKPGKAPKLLIYDVSNLETGVPSRFSGSGSGTDFTFTISSLQPEDVAIYYCQQYDNLPQTFGQGTKVEIK
On to B1, for which, in the experiment with SARS-CoV1 Spike [change], the binding result was “no binding”. In the experiment with SARS-CoV-2 Spike S1-His, this molecule registered a Kd of 0.999 nM. For the same molecule, the “WT PsV IC50” value in experiment [1] was 0.0657 nM.

B2: A-24 (antibody, V domains shown)
VH: EVQLVESGGGLVKPGRSLRLSCAASGFTFADYAMSWFRQAPGKGLEWVGFIRSKPYGGTTEYAASVKGRFTISRDDSKSIAYLQMNSLKTEDTAVYYCSRDPWYCSGGDCYAVTGSWFDPWGQGTLVTVSS
VL: DIQMTQSPSSLSASVGDRVTITCQASQDIKKYLNWYQQKPGKAPKLLIYDVSNLETGVPSRFSGSGSGTDFTFTISSLQPEDVAIYYCQQYDNLPQTFGQGTKVEIK
Take B2: the binding result in the experiment with SARS-CoV1 Spike [change] is recorded as “no binding”. Further, in the experiment with SARS-CoV-2 Spike S1-His, the dissociation constant (Kd) was found to be 5.36 nM. For the same molecule, in experiment [1], the “WT PsV IC50” value came out at 0.039 nM.

B3: A-24.3 (antibody, V domains shown)
VH: EVQLVESGGGLVKPGRSLRLSCAASGFTFADYTMSWFRQAPGKGLEWVGFIRSEPYGGTTEYAASVKGRFTISRDDSKSIAYLQMNSLKTEDTAVYYCSRDPWYCSGGDCYAVTGSWFDPWGQGTLVTVSS
VL: DIQMTQSPSSLSASVGDRVTITCQASRDIKKYLNWYQQKPGKAPKLLIYDVSNLETGVPSRFSGSGSGTDFTFTISSLQPEDVAIYYCQQYDQLPQTFGQGTKVEIE
Consider B3, for which, in the experiment with SARS-CoV1 Spike [change], the binding result is given as “no binding”. This molecule came in with a Kd with SARS-CoV-2 Spike S1-His of 0.479 nM. For the same molecule, the “WT PsV IC50” value in experiment [1] is 0.0454 nM.

B4: A-24.2 (antibody, V domains shown)
VH: EVQLVESGGGLVKPGRSLRLSCAASGFTFADYTMSWFRQAPGKGLEWVGFIRSEPYGGTTEYAASVKGRFTISRDDSKSIAYLQMNSLKTEDTAVYYCSRDPWYCSGGDCYAVTGSWFDPWGQGTLVTVSS
VL: DIQMTQSPSSLSASVGDRVTITCQASQDIKQYLNWYQQKPGKAPKLLIYDQSNLETGVPSRFSGSGSGTDFTFTISSLQPEDVAIYYCQQYWNLPQTFGQGTKVEIK
For the molecule B4, the binding result in the experiment with SARS-CoV1 Spike [change] is listed as “no binding”. The molecule also registered a dissociation constant (Kd) with SARS-CoV-2 Spike S1-His of 0.289 nM. Besides, the “WT PsV IC50” value in experiment [1] was determined as 0.116 nM.

B5: A-21 (antibody, V domains shown)
VH: EVQLVESGGGLVQPGGSLRLSCAASGFTFSRYWMHWVRQAPGKGLVWVSRINSDGSSTTYADSVKGRFTISRDNAKNTLYLQMNSLRAEDTAVYYCARELYYYDSRGAEEGEGWFDPWGQGTLVTVSS
VL: QSVLTQPPSVSGAPGQRVTISCTGISSNIGAGYDVHWYQQLPGTAPKLLIYGNSNRPSGVPDRFSASKSGTSAPLAITGLQAEDEADYYCQSSDRSLSGSVFGTGTKVTVL
As for B5, the results for the Kd with SARS-CoV1 Spike [change] and in the experiment with SARS-CoV-2 Spike S1-His were 9.03 nM and 0.529 nM, respectively. In addition, the “WT PsV IC50” value in experiment [1] came to 2.78 nM.

B6: A-21.3 (antibody, V domains shown)
VH: EVQLVESGGGLVQPGGSLRLSCAASGFTFRRYWMHWVRQAPGKGLEWVSRINSDGSSTTYADSVEGRFTISRDNAKNTLYLQMNSLRAEDTAVYYCARELYYYDRRGAEEGEGWFDPWGQGTLVTVSS
VL: QSVLTQPPSVSGAPGQRVTISCTGISSNIGAEYDVHWYQQLPGTAPKLLIYGNSNRPRGVPDRFSASKSGTSAPLAITGLQAEDEADYYCQVSDRYLSGSVFGTGTKVTVL
For B6, the Kd is 0.893 nM with SARS-CoV1 Spike [change] and 0.241 nM with SARS-CoV-2 Spike S1-His. Besides, in experiment [1], the “WT PsV IC50” value was found to be 0.946 nM.

B7: A-21.2 (antibody, V domains shown)
VH: EVQLVESGGGLVQPGGSLRLSCAASGFTFSRYWMHWVRQAPGKGLVWVSRINSDGSSTTYADSVKGRFTISRDNAKNTLYLQMNSLRAEDTAVYYCARELYYYDSRGAEEGEGWFDPWGQGTLVTVSS
VL: QSVLTQPPSVSGAPGQRVTISCTGISSNIGAQYDVHWYQQLPGTAPKLLIYGNSNRPRGVPDRFSASKSGTSAPLAITGLQAEDEADYYCQSSDRSVSGSVFGTGTKVTVL
With B7, the figures for the dissociation constant (Kd) with SARS-CoV1 Spike [change] and in the experiment with SARS-CoV-2 Spike S1-His were 7.93 nM and 0.195 nM, respectively. The “WT PsV IC50” value in experiment [1] stood at 2.63 nM.

B8: A-23 (antibody, V domains shown)
VH: EVQLVESGGGLVQPGRSLRLSCAASGFTFDDYAMHWVRQAPGKGLEWVSGISWNSGTIGYADSVKGRFIISRDNAKNSLYLQMNSLRGEDMALYYCGKDRKREDPSLGGMDVWGQGTTVTVSS
VL: SYVLTQPPSVSVAPGQTARITCGGNNIGSKSVHWYQQKPGQAPVLVVYDDTDRPSGIPERFSGSNSGNTATLTISRVEAGDEADYYCQVWDSSSDHYVFGTGTKVTVL
Consider B8, for which, in the experiment with SARS-CoV1 Spike [change], the binding result is “no binding”. Binding with SARS-CoV-2 Spike S1-His was characterised by a dissociation constant (Kd) of 2.11 nM. In experiment [1], the “WT PsV IC50” value turned out to be 0.539 nM.

B9: A-23.1 (antibody, V domains shown)
VH: EVQLVESGGGLVQPGRSLRLSCAASGFTIDDYAMHWVRQAPGKGLEWVSGISWNGGTIGYADSVKGRFIISRDNAKNSLYLQMNSLRGEDMALYYCGKDRKREDPSLGGMDVWGQGTTVTVSS
VL: SYVLTQPPSVSVAPGQTARITCLGNNIGSKSVHWYQQKPGQAPVLVVYDDTDRPSGIPERFSGSNSGNTATLTISRVEAGDEADYYCQVWDSESDHYVFGTGTKVTVL
Take B9: the binding result in the experiment with SARS-CoV1 Spike [change] is “no binding”. The molecule further came in with a Kd with SARS-CoV-2 Spike S1-His of 0.829 nM. The “WT PsV IC50” value in experiment [1] was 0.423 nM.

B10: A-23.2 (antibody, V domains shown)
VH: EVQLVESGGGLVQPGRSLRLSCAASGFTFDDYAMHWVRQAPGKGLEWVSGTSWNSGTIGYADSVKGRFIISRDNAKNSLYLQMNSLRGEDMALYYCVKDRKREDPSLGGMDVWGQGTTVTVSS
VL: SYVLTQPPSVSVAPGQTARITCGGNNIGSKSVHWYQQKPGQAPVLVVYDDTDRPSGIPERFSGSNSGNTATLTISRVEAGDEADYYCQVWDVSSDSYVFGTGTKVTVL
Regarding B10, the binding result with SARS-CoV1 Spike [change] is recorded as “no binding”. Moreover, in the experiment with SARS-CoV-2 Spike S1-His, binding was put at a Kd of 0.454 nM. Also, in experiment [1], the “WT PsV IC50” value came out at 0.416 nM.

B11: A-22.1 (antibody, V domains shown)
VH: not shown
VL: EIVLTQSPGTLSLSPGERATLSCRASQTVRSDLAWYQQKPGQAPRLLIYGASTRATDISDRFSGSGSGTEFTLTISSLQSEDFAVYYCQQYYEWPPHSDSFGGGTKVEIK
Consider B11, for which the Kd with SARS-CoV1 Spike [change] is 3.68 nM; with SARS-CoV-2 Spike S1-His it was 0.278 nM. The “WT PsV IC50” value in experiment [1] was 14.3 nM.

B12: A-22.3 (antibody, V domains shown)
VH: not shown
VL: EIVLTQSPGTLSLSPGERATLSCRASQTVRSDLAWYQQKPGQAPRLLIYGGSTRATDISDRFSGSGSGTEFTLTISSLQSEDFAVYYCQQYYEWPPHSDSFGGGTKVEIK
As to B12, the dissociation constant (Kd) came out at 4.77 nM with SARS-CoV1 Spike [change] and 0.245 nM in the experiment with SARS-CoV-2 Spike S1-His. The “WT PsV IC50” value in experiment [1] amounted to 7.1 nM.

B13: A-22.2 (antibody, V domains shown)
VH: not shown
VL: EIVLTQSPGTLSLSPGERATLSCSASQTVRSDLAWYQQKPGQAPRLLIYGGSTRATDISDRFSGSGSGTEFTLTISSLQSEDFAVYYCQQYYEWPPHSDSFGGGTKVEIK
For B13, the dissociation constant (Kd) was determined as 10.1 nM with SARS-CoV1 Spike [change] and 0.254 nM with SARS-CoV-2 Spike S1-His. Further, the “WT PsV IC50” value in experiment [1] is 3.3 nM.

B14: A-20.2 (antibody, V domains shown)
VH: QVQLVQSGGGVVQPGRSLRLSCAASGFTFDNFAMHWVRQAPGKGLEWVAVIEYDGINKYYADSVKGRFTISRGNSKNTLSLQMNSLRAEDTAVYYCARAQNYYDRYGTLQLDAFDIWGQGTLVTVSS
VL: AIQMTQSPSSLSASVGDRVTITCRASQGIRNDLGWYQQKPGKAPKLLIYDASSLQSGVPSRFSGSGSGTDFTLTISSLQPEDFATYYCLQDYNYPLTFGGGTKVEIK
As for B14, the Kd with SARS-CoV1 Spike [change] came to 1.74 nM; with SARS-CoV-2 Spike S1-His it was 0.293 nM. The “WT PsV IC50” value in experiment [1] was 1.06 nM.

B15: A-20.3 (antibody, V domains shown)
VH: QVQLVQSGGGVVQPGRSLRLSCAASGFTFDNFAMHWVRQAPGKGLEWVAVILYDGINDYYADSVKGRFTISRGNSKNTLSLQMNSLRAEDTAVYYCARAQNYYDRHGTLQLDAFDIWGQGTLVTVSS
VL: AIQMTQSPSSLSASVGDRVTITCRASDGIRNDLGWYQQKPGKAPKLLIYEASSLQSGVPSRFSGSGSGTDFTLTISSLQPEDFATYYCLQNYNYPLTFGGGTKVEIK
As for B15, the Kd with SARS-CoV1 Spike [change] came to 3.52 nM; with SARS-CoV-2 Spike S1-His it was 0.366 nM. In experiment [1], the “WT PsV IC50” value is 1.51 nM.
